From patent publication US6379943, “High-efficiency Cre/loxp based system for construction of adenovirus vectors” (Merck & Co., Inc.) come the findings set out here.

Data set [1] concerns the target Cre recombinase (Bacteriophage P1?) (UniProt P06956). Put plainly: cell_activity. The note with it: plasmids lacking lox; 5 plaques in 293 without Cre, homologous recombination background.
For data set [2], the target named is Cre recombinase (UniProt P06956 P06956:1-343). Put plainly: cell_activity; pCA36lox x pBHG10lox cotransfection; 168 plaques in 293Cre4 vs 4 in 293 (12 dishes each). The note with it: tags: stably expressed in 293Cre4 cells; chain copies: 4; BamHI/BglII overhangs. An excerpt: The efficiency of Cre/lox mediated recombination was compared with that of homologous recombination, by measuring the numbers of virus plaques obtained from cotransfections of 293 cells versus the numbers obtained following cotransfections of 293Cre4 cells (see, for example, U.S. patent application Ser. No. 08/473,168, filed Jun. 7, 1995; see also WO96/40955, hereby incorporated by reference).
Coupled with the fact that the only infectious virus present in the transfected cell preparation are recombinants, rather than contaminating starting virus, the efficiency, cleanliness and convenience of this method in comparison to known methods represent significant advances in the art. Thus, with this new method it will be possible to reduce the amount of plasmid DNA used in cotransfections and reduce the number of dishes of 293 (293Cre) cells needed in cotransfections for rescue of viral vectors. It will also aid in the rescue of constructs which, for unknown reasons, might be otherwise difficult to rescue (e.g. rescue of vectors containing large foreign DNA inserts in E1 is often inefficient for reasons that are not known).

Chain of Cre recombinase (P06956 whole entry, one chain of several): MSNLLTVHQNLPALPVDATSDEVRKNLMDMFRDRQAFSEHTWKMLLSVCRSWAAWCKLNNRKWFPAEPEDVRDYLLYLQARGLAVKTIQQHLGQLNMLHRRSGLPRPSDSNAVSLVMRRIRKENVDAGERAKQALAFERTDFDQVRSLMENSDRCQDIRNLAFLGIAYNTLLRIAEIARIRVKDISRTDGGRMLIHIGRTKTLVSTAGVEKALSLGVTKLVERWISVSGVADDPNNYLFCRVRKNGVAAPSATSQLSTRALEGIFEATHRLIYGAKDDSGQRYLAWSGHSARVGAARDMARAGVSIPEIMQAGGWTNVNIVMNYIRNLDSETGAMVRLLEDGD
Chain of Cre recombinase (Bacteriophage P1?) (P06956 whole entry): as the sequence (P06956 whole entry, one chain of several) above

For no-lox plasmid pair pCA36:pBHG10, in data set [1], the activity (plaques (12 dishes)) was found to be 7.

B1: loxP linker AB3233/AB3234 (dsDNA)
DNA 1: GATCCAATAACTTCGTATAGCATACATTATACGAAGTTATAAGTACTGAATTCG
DNA 2: GATCCGAATTCAGTACTTATAACTTCGTATAATGTATGCTATACGAAGTTATTG
As for B1, in data set [2], the activity was 35 fold over homologous recombination.
